Laboratory results: patent publication US20250026838A1

B1: 846.1B2-hIgG4(S228P) (antibody, V domains shown)
VH: QIQLVQSGPELKKPGETVKISCKASGYTFTNYGMNWVKQAPGKGLKWMGWINTYTGEPSYADDFKGRFAFSLETSASTAYLQINNLKNEDMATYFCARWGGYAGDYYAMDFWGQGTSVTVSS
VL: NIWLTQSPSSLAVSAGEMVTMTCKSSQSVLYSSNQKNYLAWYQQKPGQSPKLLIYWASTRESGVPDRFTGSGSGTDFSLTISSVQAEDLAVYYCHQYLSSLTFGAGTKLELKR
B2: 846.1H5-hIgG4(S228P) (antibody, V domains shown)
VH: EVQLLESGGGLVKPGGSLKLSCAASGFTFSSYAMSWVRQTPEKRLEWVASISSGGDTYYPDSVKGRFTISRDNARNILYLQMSSLRSEDTAMYYCASYGNSLFDYWGQGTTLTVSS
VL: DVVMTQTPLSLPVSLGDQASISCRSSQSLVHNSGNTYLHWYLQRPGQSPNLLIYKVSNRFSGVPDRFSGSGSGTDFTLKISRVAAEDLGVYFCSQSTHVPPTFGGGTKLEIKR
B3: 2D10-VH0-VL0-hIgG4(S228P) (antibody, V domains shown)
VH: QFQLQQSGPELVKPGASVKISCKASGYTFTDYYINWVKQRPGQGLEWIGWIYPGSNDTKYNEKFKGKATLTVDTSSSTAYMQLGSLTSEDSAVYFCANYFGCSGWFFDVWGTGTTVTVSS
VL: DIVMTQAAFSNPVTLGTSASISCRSSKSLLHSDGITYLYWYLQRPGQSPQLLIYRMSNLASGVPDRFSGSGSGTDFTLRISRVEAEDVGVYYCAQMIEFPLTFGAGTILELKR

Experiments:
[1] = molecular target: Human Galectin-3 (Gal3) protein (human) (UniProt P17931); test: competition ELISA, hGal3 coated; competitor: biotinylated aggregated phospho-tau
[2] = molecular target: Human Galectin-3 (Gal3) protein (human) (UniProt P17931); test: competition ELISA, hGal3 coated; competitor: biotinylated aggregated alpha-synuclein

Sequence of Human Galectin-3 (Gal3) protein (human) (P17931 whole entry): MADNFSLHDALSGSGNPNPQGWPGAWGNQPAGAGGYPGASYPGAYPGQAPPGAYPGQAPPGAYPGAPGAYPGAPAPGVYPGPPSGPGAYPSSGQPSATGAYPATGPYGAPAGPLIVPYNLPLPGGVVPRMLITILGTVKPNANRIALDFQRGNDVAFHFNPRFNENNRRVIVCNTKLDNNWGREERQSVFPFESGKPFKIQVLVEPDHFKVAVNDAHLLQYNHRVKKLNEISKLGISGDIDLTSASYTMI

blocking efficacy [1] | blocking efficacy [2] | Binder
> 70% | > 70% | B1
 | > 70% | B2
> 70% | > 70% | B3
